Assay results taken from patent US20100248359A1 (Chugai, published 2010).
Changes are numbered by the printed parent chain. Names and notes keep the numbering of the source.

Columns and labels:
[1] = molecular target: T1, full-length human GPC3 (human, UniProt P51654 25-554); assay: flow cytometry, antibody at 5 µg/mL, HepG2 cells
T1 construct: On CHO (DXB11) or SK-HEP-1 (SK-03) transfectants; also used here for the GPC3 on the hepatoma lines HepG2 and HuH-7; also called human glypican 3

[2] = molecular target: T1, full-length human GPC3; assay: flow cytometry, antibody at 5 µg/mL, HuH-7 cells
[3] = molecular target: T2, soluble form of GPC3 core protein (human, UniProt P51654 25-563); assay: ELISA on plate coated with soluble GPC3 core protein
T2 construct: not shown: His tag added to the C-terminus

[4] = molecular target: T1, full-length human GPC3; assay: BIACORE; the form of GPC3 used is not given
[5] = molecular target: T3, C-terminal fragment of 30 kDa of the soluble form of GPC3 core protein (human, UniProt P51654 375-563); assay: Western blotting of soluble GPC3 core protein after reducing SDS-PAGE
T3 construct: the shorter limit is written; also called C-terminal side; band of about 30 kDa; not shown: His tag at the C-terminus
T3 chain: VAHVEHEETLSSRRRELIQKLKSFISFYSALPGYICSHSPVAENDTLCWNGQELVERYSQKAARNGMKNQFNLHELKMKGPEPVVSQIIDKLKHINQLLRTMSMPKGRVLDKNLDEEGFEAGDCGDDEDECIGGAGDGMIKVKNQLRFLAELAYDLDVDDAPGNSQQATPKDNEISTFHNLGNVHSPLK

[6] = molecular target: T2, soluble form of GPC3 core protein; assay: competitive ELISA on coated soluble GPC3 core protein; labelled competitor biotin-M1E7;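 further: Biotin-labelled antibody added as 10 µL at 10 µg/mL for 1 h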
[7] = molecular target: T2, soluble form of GPC3 core protein; assay: competitive ELISA on coated soluble GPC3 core protein; labelled competitor biotin-M5B9;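 further: Biotin-labelled antibody added as 10 µL at 10 µg/mL for 1 h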
[8] = molecular target: T2, soluble form of GPC3 core protein; assay: competitive ELISA on coated soluble GPC3 core protein; labelled competitor biotin-M6B1;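 further: Biotin-labelled antibody added as 10 µL at 10 µg/mL for 1 h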
[9] = molecular target: T2, soluble form of GPC3 core protein; assay: competitive ELISA on coated soluble GPC3 core protein; labelled competitor biotin-L9G11;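 further: Biotin-labelled antibody added as 10 µL at 10 µg/mL for 1 h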
[10] = molecular target: T2, soluble form of GPC3 core protein; assay: competitive ELISA on coated soluble GPC3 core protein; labelled competitor biotin-M10D2;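 further: Biotin-labelled antibody added as 10 µL at 10 µg/mL for 1 h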
[11] = molecular target: T2, soluble form of GPC3 core protein; assay: competitive ELISA on coated soluble GPC3 core protein; labelled competitor biotin-M11F1;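 further: Biotin-labelled antibody added as 10 µL at 10 µg/mL for 1 h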
[12] = molecular target: T2, soluble form of GPC3 core protein; assay: competitive ELISA on coated soluble GPC3 core protein; labelled competitor biotin-M18D4;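 further: Biotin-labelled antibody added as 10 µL at 10 µg/mL for 1 h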
[13] = molecular target: T2, soluble form of GPC3 core protein; assay: competitive ELISA on coated soluble GPC3 core protein; labelled competitor biotin-M3C11;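 further: Biotin-labelled antibody added as 10 µL at 10 µg/mL for 1 h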
[14] = molecular target: T1, full-length human GPC3; assay: flow cytometry, antibody at 5 µg/mL, CHO cells expressing human GPC3 (column CHO/human GPC3)
[15] = molecular target: T4, GC-1 (GST fusion of GPC3 Ser495 to Lys563) (human, UniProt P51654 495-563); assay: Western blotting of GST-fusion proteins, reducing SDS-PAGE
T4 construct: Made in E. coli DH5alpha; not shown: GST as encoded by pGEX-4T-3 (Amersham), N-terminal to the GPC3 peptide
T4 sequence: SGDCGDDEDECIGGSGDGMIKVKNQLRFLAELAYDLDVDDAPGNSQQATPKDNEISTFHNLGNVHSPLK

[16] = molecular target: T5, GC-2 (GST fusion of GPC3 Gly510 to Lys563) (human, UniProt P51654 510-563); assay: as above
T5 construct: not shown: GST as encoded by pGEX-4T-3 (Amersham), N-terminal to the GPC3 peptide
T5 sequence: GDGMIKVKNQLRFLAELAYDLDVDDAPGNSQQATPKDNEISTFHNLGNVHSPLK

[17] = molecular target: T6, GC-3 (GST fusion of GPC3 Ala524 to Lys563) (human, UniProt P51654 524-563); assay: as above
T6 construct: not shown: GST as encoded by pGEX-4T-3 (Amersham), N-terminal to the GPC3 peptide
T6 chain: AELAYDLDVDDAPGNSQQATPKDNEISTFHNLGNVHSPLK

[18] = molecular target: T2, soluble form of GPC3 core protein; assay: ELISA on plate coated with soluble GPC3 core protein; antibody from COS7 culture supernatant
[19] = molecular target: T2, soluble form of GPC3 core protein; assay: ELISA on plate coated with soluble GPC3 core protein; antibody from COS7 culture supernatant [lower right panel]

T1 sequence (P51654 25-554 limits assumed): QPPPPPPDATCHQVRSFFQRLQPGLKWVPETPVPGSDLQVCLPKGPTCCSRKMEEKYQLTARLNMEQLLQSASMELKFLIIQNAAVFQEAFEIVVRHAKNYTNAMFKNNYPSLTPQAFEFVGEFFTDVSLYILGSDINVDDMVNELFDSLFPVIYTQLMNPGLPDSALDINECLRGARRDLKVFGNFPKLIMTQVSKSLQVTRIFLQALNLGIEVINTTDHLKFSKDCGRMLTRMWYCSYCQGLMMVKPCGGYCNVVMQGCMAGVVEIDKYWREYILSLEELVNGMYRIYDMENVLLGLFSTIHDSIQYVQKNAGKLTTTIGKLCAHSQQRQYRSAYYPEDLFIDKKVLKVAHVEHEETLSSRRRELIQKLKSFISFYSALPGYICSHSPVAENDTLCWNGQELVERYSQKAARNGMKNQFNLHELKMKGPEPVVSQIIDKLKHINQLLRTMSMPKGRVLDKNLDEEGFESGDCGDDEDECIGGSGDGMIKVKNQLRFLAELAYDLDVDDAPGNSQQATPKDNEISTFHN

B1: L9G11 (antibody, V domains shown)
VH: QVQLQQPGAELVKPGASVKLSCKASGYTFTSYWMHWVKQRPGQGLEWIGTIDPSDSETHYNLQFKDTATLTVDKSSSTAYMQLSSLTSEDSAVYYCIRGAFYSSYSYWAWFAYWGQGTLVTVSA
VL: DIVLTQSPTSLAVSLGQSVTISCRASESVEYYGTSLMQWYQQKPGQPPKLLIYGASNVESGVPARFSGSGSGTDFSLNIHPVEEDDIAMYFCQQSRKVPYTFGSGTKLEIK
notes: Mouse monoclonal from hybridoma
FACS X-mode value of the histogram [1]: 26 | FACS X-mode value of the histogram [2]: 4 | EC50 [3]: 0.62 nM | Kd [4]: 10.7 nM | koff [4]: 0.0014 s⁻¹ | kon [4]: 130000 M⁻¹ s⁻¹ | binding result [5]: no binding | Inhibition of the binding of indicated biotin-Mab to sGPC3 core (%) [6]: -4.8% | Inhibition of the binding of indicated biotin-Mab to sGPC3 core (%) [7]: 6.4% | Inhibition of the binding of indicated biotin-Mab to sGPC3 core (%) [8]: 10.1% | Inhibition of the binding of indicated biotin-Mab to sGPC3 core (%) [9]: 92.2% | Inhibition of the binding of indicated biotin-Mab to sGPC3 core (%) [10]: 1.2% | Inhibition of the binding of indicated biotin-Mab to sGPC3 core (%) [11]: 6% | Inhibition of the binding of indicated biotin-Mab to sGPC3 core (%) [12]: 15.7% | Inhibition of the binding of indicated biotin-Mab to sGPC3 core (%) [13]: 2.1% | FACS X-mode value of the histogram [14]: 29

B2: M3B8 (antibody, V domains shown)
VH: QVTLKESGPGILQPSQTLSLTCSFSGFSLSTYGMGVGWIRQPSGMGLEWLANIWWYDAKYYNSDLKSRLTISKDTSNNQVFLKISSVDTSDTATYYCAQMGLAWFAYWGQGTLVTVSA
VL: DIKMTQSPSSMYASLGERVTITCKASQDINNYLSWFQQKPGKSPKTLIYRANRLVDGVPSRFSGSGSGQDYSLTISSLEYEDMGINYCLQCDEFPPWTFGGGTKLEIK
notes: as for B1
binding result [15]: binds | binding result [16]: binds | binding result [17]: binds

B3: humanized GC33 H chain ver.k / L chain ver.a (antibody, V domains shown)
VH: QVQLVQSGAEVKKPGASVKVSCKASGYTFTDYEMHWVRQAPGQGLEWMGALDPKTGDTAYSQKFKGRVTLTADKSTSTAYMELSSLTSEDTAVYYCTRFYSYTYWGQGTLVTVSS
VL: DVVMTQSPLSLPVTPGEPASISCRSSQSLVHSNGNTYLHWYLQKPGQSPQLLIYKVSNRFSGVPDRFSGSGSGTDFTLKISRVEAEDVGVYYCSQNTHVPPTFGQGTKLEIK
notes: Parent of the N33 and G34 L chain variants
EC50 (read off the curve) [18]: ~0.02 µg/mL

B4: modified humanized GC33 (H chain ver.k, L chain G34R) (antibody, human IgG1, V domains shown)
VH: B3 VH
VL: B3 VL with G34R
notes: COS7 supernatant; human IgG1/kappa
EC50 (read off the curve) [19]: ~0.02 µg/mL
